Source: paper PMC9993118

Experiments:
Details in all cases: EMSA: Pierce EMSA kit conditions, 15 min, 7.5% polyacrylamide gel at room temperature; footprinting: 20 mM Tris-HCl pH 7.5, 80 mM NaCl, 1 mM EDTA, 100 ug/ml …
Lrp [1] = target: T1, Lrp (UniProt P0ACJ0); test: EMSA
T1 sequence: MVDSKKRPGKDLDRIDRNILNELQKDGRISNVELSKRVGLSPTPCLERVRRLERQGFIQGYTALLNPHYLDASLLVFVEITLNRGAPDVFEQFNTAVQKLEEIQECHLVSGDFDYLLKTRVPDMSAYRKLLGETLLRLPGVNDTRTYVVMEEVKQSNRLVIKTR

Fis (Escherichia coli) = target: T2, Fis (Escherichia coli) (UniProt P0A6R3); test: EMSA
T2 sequence: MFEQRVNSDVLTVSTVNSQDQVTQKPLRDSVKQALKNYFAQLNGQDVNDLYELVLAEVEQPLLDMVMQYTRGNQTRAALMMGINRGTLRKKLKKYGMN

Lrp [2] = target: T1, Lrp; test: competition EMSA

Sequence: CCCCCAAAAGATGAAACATTTGGGGCCATTTTGACTCATAGAGGAAAGCATCGCGGACAAACTTTTTCAGTTTATTTGTTGGCTTAATATTCTATTGTTATCTTTATTTATAGATGTTTATATTGCATGAGGTGG (double strand) [fimS 135 bp probe (wild type)]
- binding (Lrp [1]): binds
- binding (Fis (Escherichia coli)): binds
- binding (Lrp [2]): binds

Sequence: CCACCTCATGCAATATAAACATCTATAAATAAAGATAACAATAGAATATTAAGGGGTTAGCTAAACTGAAAAAGTTTGTCCGCGATGCTTTCCTCTATGAGTCAAAATGGCCCCAAATGTTTCATCTTTTGGGGG (double strand) [fimS 135 bp probe, Fis site disrupted]
- binding (Lrp [1]): binds more weakly
- binding (Fis (Escherichia coli)): binds more weakly
